{"source": "IntAct's records for PubMed 14755250", "parents": {"B1": {"name": "RING finger protein 11 (Homo sapiens), Q9Y3C5 (parent)", "chain": "MGNCLKSPTSDDISLLHESQSDRASFGEGTEPDQEPPPPYQEQVPVPVYHPTPSQTRLATQLTEEEQIRIAQRIGLIQHLPKGVYDPGRDGSEKKIRECVICMMDFVYGDPIRFLPCMHIYHLDCIDDWLMRSFTCPSCMEPVDAALLSSYETN", "partner": "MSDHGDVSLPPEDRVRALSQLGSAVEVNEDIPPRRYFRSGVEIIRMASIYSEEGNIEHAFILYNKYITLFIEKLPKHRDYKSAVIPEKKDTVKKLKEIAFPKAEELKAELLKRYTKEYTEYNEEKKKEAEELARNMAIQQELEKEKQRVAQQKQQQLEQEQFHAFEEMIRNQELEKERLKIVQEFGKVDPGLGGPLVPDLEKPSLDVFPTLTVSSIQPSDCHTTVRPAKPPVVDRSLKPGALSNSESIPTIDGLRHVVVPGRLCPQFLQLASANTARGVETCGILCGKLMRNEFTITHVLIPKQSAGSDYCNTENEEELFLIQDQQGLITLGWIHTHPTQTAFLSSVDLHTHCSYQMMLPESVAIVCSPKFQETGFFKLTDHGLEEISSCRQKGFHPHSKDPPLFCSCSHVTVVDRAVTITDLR"}}}
{"variants_of": "B1", "conditions": "with stabp_human STAMBP"}
{"variant": "MGNCLKSPTSDDISLLHESQSDRASFGEGTEPDQEPPPPYQEQVPVPVYHPTPSQTRLATQLTEEEQIRIAQRIGLIQHLPKGVYDPGRDGSEKKIREAVICMMDFVYGDPIRFLPCMHIYHLDCIDDWLMRSFTCPSCMEPVDAALLSSYETN", "note": "[C99A]", "effect of a mutation on the interaction": "decreasing interaction"}
